For one data set, the target named is T1, human SepSecS (Homo sapiens, UniProt Q9HD40, V491A).
T1 sequence (Q9HD40 1-501 V491A): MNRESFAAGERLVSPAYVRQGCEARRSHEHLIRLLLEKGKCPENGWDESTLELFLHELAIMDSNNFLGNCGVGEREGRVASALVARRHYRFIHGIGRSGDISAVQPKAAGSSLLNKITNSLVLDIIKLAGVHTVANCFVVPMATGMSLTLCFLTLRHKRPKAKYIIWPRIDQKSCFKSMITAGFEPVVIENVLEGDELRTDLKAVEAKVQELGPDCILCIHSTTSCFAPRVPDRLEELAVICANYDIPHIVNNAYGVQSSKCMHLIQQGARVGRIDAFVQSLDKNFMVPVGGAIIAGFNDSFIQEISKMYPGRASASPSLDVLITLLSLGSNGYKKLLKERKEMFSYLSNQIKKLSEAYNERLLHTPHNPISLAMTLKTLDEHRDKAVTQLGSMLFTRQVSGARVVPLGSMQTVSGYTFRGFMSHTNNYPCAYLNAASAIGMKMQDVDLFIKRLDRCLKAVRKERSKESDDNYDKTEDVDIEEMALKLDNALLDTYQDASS
To be noted: holo SepSecS without bound tRNA; P-loop site near active site.

Another data set has as its system SepSecS H30A (human). Description: MST. To be noted: MST: 20 mM HEPES pH 8.0, 150 mM NaCl, 5% glycerol, 0.05% Tween-20, 0.4 mg/ml BSA, room temperature, 5 nM labeled SepSecS; van't Hoff series 24-34 C.
The next data set has as its system SepSecS WT (human). Description: MST. The following applies: MST: 20 mM HEPES pH 8.0, 150 mM NaCl, 5% glycerol, 0.05% Tween-20, 0.4 mg/ml BSA, room temperature, 5 nM labeled SepSecS; van't Hoff series 24-34 C.
The test system of a further data set is SepSecS S27A (human). Kind of data set: MST. The following applies: MST: 20 mM HEPES pH 8.0, 150 mM NaCl, 5% glycerol, 0.05% Tween-20, 0.4 mg/ml BSA, room temperature, 5 nM labeled SepSecS; van't Hoff series 24-34 C.
A further data set relates to SepSecS S393A (human). Kind of data set: MST. The following applies: MST: 20 mM HEPES pH 8.0, 150 mM NaCl, 5% glycerol, 0.05% Tween-20, 0.4 mg/ml BSA, room temperature, 5 nM labeled SepSecS; van't Hoff series 24-34 C.
A further data set relates to SepSecS R398A (human). Kind of data set: MST. The following applies: MST: 20 mM HEPES pH 8.0, 150 mM NaCl, 5% glycerol, 0.05% Tween-20, 0.4 mg/ml BSA, room temperature, 5 nM labeled SepSecS; van't Hoff series 24-34 C.
The next data set concerns SepSecS E37L (human). Kind of data set: MST. The following applies: MST: 20 mM HEPES pH 8.0, 150 mM NaCl, 5% glycerol, 0.05% Tween-20, 0.4 mg/ml BSA, room temperature, 5 nM labeled SepSecS; van't Hoff series 24-34 C.
The test system of the next data set is SepSecS R33A (human). Kind of data set: MST. The following applies: MST: 20 mM HEPES pH 8.0, 150 mM NaCl, 5% glycerol, 0.05% Tween-20, 0.4 mg/ml BSA, room temperature, 5 nM labeled SepSecS; van't Hoff series 24-34 C.
The subject of the next data set is Q399A SepSecS (human). Description: MST. To be noted: MST: 20 mM HEPES pH 8.0, 150 mM NaCl, 5% glycerol, 0.05% Tween-20, 0.4 mg/ml BSA, room temperature, 5 nM labeled SepSecS; van't Hoff series 24-34 C.
For the next data set, the system named is SepSecS T397V (human). Kind of data set: MST. To be noted: MST: 20 mM HEPES pH 8.0, 150 mM NaCl, 5% glycerol, 0.05% Tween-20, 0.4 mg/ml BSA, room temperature, 5 nM labeled SepSecS; van't Hoff series 24-34 C.
A further data set has as its system SepSecS K38M (human). Kind of data set: MST. The following applies: MST: 20 mM HEPES pH 8.0, 150 mM NaCl, 5% glycerol, 0.05% Tween-20, 0.4 mg/ml BSA, room temperature, 5 nM labeled SepSecS; van't Hoff series 24-34 C.
The subject of the next data set is SepSecS F396V (human). Kind of data set: MST. To be noted: MST: 20 mM HEPES pH 8.0, 150 mM NaCl, 5% glycerol, 0.05% Tween-20, 0.4 mg/ml BSA, room temperature, 5 nM labeled SepSecS; van't Hoff series 24-34 C.
A further data set relates to SepSecS R26A (human). Description: MST. The following applies: MST: 20 mM HEPES pH 8.0, 150 mM NaCl, 5% glycerol, 0.05% Tween-20, 0.4 mg/ml BSA, room temperature, 5 nM labeled SepSecS; van't Hoff series 24-34 C.

For orientation: Kd means a measure of binding affinity in units of concentration. Read a low Kd as a tighter complex.

With `O=P(O)(O)O` [phosphate ion], at human SepSecS, the “X-ray crystallography, 2.25 A” value is on record as “structure of holo SepSecS possessed a phosphate ion bound to the P-loop”.
Regarding tRNASec WT (unacylated), the dissociation constant Kd stood at 166 nM with SepSecS H30A (human); 134 nM in the data set on SepSecS WT (human); 133 nM with SepSecS S27A (human); 197 nM in the data set with SepSecS S393A (human); 2530 nM with SepSecS R398A (human); 166 nM in the data set with SepSecS E37L (human). Moreover, the Kd in the data set on SepSecS R33A (human) was 28.9 nM; in the data set with Q399A SepSecS (human) it was 567 nM; in the data set with SepSecS T397V (human) it was 62.8 nM; with SepSecS K38M (human), 1670 nM; in the data set on SepSecS F396V (human), 44.1 nM; in the data set with SepSecS R26A (human) it was 516 nM.
